The assay has as its target CG57008 protein, membrane bound (HAVcr-1, Hepatitis A virus cellular receptor 1) (human). Briefly: flow cytometry on polarized human CD4+ Th2 cells, 10 ug/ml; isotype control. For orientation: A flow cytometer gives signals particle by particle.

“PK16.3 isotype matched control mAb (antibody)” gave a geometric mean of the fluorescence intensity of 8.4.

Values taken from US20050014687A1.
